What all share (experiment): chloride ion selective electrode, initial rates, Michaelis-Menten fit
What all share (details): 10 mM phosphate buffer pH 7.0, 21–23°C, soluble protein fraction

Substrate in data set [1]: [O-][Cl+]O
Type of data set: biochemical, Nitrospira defluvii. An excerpt:
chloride ion selective electrode, initial rates, Michaelis-Menten fit on rNdCld

Substrate in data set [2]: [O-][Cl+]O
Type of data set: biochemical, Nitrobacter winogradskyi. An excerpt: chloride ion selective electrode, initial rates, Michaelis-Menten fit on rNwCld

Substrate in data set [3]: [O-][Cl+]O
It is filed as biochemical, Ideonella dechloratans. An excerpt:
chloride ion selective electrode, initial rates, Michaelis-Menten fit on rIdCld

B1: rNdCld (Nitrospira defluvii) (protein)
chain: ADREKLLTESGVYGTFATFQMDHDWWDLPGESRVISVAEVKGLVEQWSGKILVESYLLRGLSDHADLMFRVHARTLSDTQQFLSAFMGTRLGRHLTSGGLLHGVSKKPTYVAGFPESMKTELQVNGESGSRPYAIVIPIKKDAEWWALDQEARTALMQEHTQAALPYLKTVKRKLYHSTGLDDVDFITYFETERLEDFHNLVRALQQVKEFRHNRRFGHPTLLGTMSPLDEILEKFAQ
notes: recombinant, plasmid pET21b-Ndcld (Dr. Daims) in E. coli BL21 (DE3); soluble protein fraction, not purified
A word on the Km: it is the concentration of substrate that gives half-maximal velocity. As for B1, the Km in data set [1] came to 2500 ± 470 µM.

B2: rNwCld (Nitrobacter winogradskyi Nb-255) (protein)
chain: MTFTVFTGGDSGAWSILSVAPVIGESLMAASHLAIAPSLSLGDTSATTPWQLRGVASHARYVERAEKIALTSVQAGLGRNEATRAALIPIRKSAAWWEMTQDERRAIFEDKSHHIAASLKYLPAIARQLYHCRDIGEPFDFLTWFEYAPEHATMFEDLVGVLRATEEWTYVEREVDIRLARAI
notes: recombinant, plasmid pET21b-Nwcld (Dr. Daims) in E. coli BL21 (DE3); soluble protein fraction, not purified
For the protein B2, the Michaelis-Menten constant (Km) in data set [2] is 380 ± 150 µM.

B3: rIdCld (Ideonella dechloratans) (protein)
chain: AMNTPVDRAKILSAPGVFVAFSTYKIRPDYFKVALAERKGAADEVMAVLEKHKEKVIVDAYLTRGYEAKSDYFLRVHAYDAVAAQAFLVDFRATRFGMYSDVTESLVGITKALNYISKDKSPDLNKGLSGATYAGDAPRFAFMIPVKKNADWWNLTDEQRLKEMETHTLPTLPFLVNVKRKLYHSTGLDDTDFITYFETNDLGAFNNLMLSLAKVPENKYHVRWGNPTVLGTIQPIENLVKTLSMGN
notes: recombinant, plasmid pET3a-Idcld (Dr. Rova) in E. coli BL21 (DE3); soluble protein fraction, not purified
Turning to B3, the Km in data set [3] came out at 320 ± 160 µM.

The values above are taken from paper PMC5733030, “Characterizing Isozymes of Chlorite Dismutase for Water Treatment” (Frontiers in Microbiology, 2017).
